The target of assay [1] is MA2561 (AmzR, Archaeal Metabolite-sensing Zipper-like Regulator) of Methanosarcina acetivorans (Methanosarcina acetivorans). As to the kind of experiment: non-reducing SDS-PAGE.
Assay [2] shares this target. The assay is described as follows: non-reducing SDS-PAGE. The source holds these as a separate data set.

Read-outs that look alike come from different tables or passages of the source.

We go through one substance from paper doi:10.1101/2025.05.05.652248.

What is called stoichiometry N is a count of units in the complex or per binding partner.

As for “MA2561 (AmzR, Archaeal Metabolite-sensing Zipper-like Regulator) of Methanosarcina acetivorans (natural protein)”, the stoichiometry N in assay [1] is 2; in assay [2] it was 4.
